Experimental data from paper PMC5793033 (ACS Omega, 2018).

Target: the molecule itself

B1: NgDapB (4-hydroxy-tetrahydrodipicolinate reductase from Neisseria gonorrhoeae) (enzyme, UniProt B4RR35 1-269, looked up)
chain: MIPLKIAIAGANGRMGRVLVEAVNNHPDTVLSGALEHSGSEALGLDAGYAVGLKTGIAISDDVDAVLAQSDVLIDFTRPEPTLKHLQKCVEKQVNIIIGTTGFDDAGKAAIRAAAEKTGIVFAANFSVGVNLTFHILDTVARVLNEGYDIEIIEGHHRHKVDAPSGTALRMGEVIAGALGRDLKQCAVYGREGHTGPRDPSTIGFATVRAGDIVGDHTALFATDGERVEITHKAGSRMTFAAGAVRAAVWVNGKTGLYDMQDVLGLNNR
stoichiometry N: 4
